Source: the supplement of paper PMC9170038

System: MS2 coat protein
Assay: apparent KD of MS2 coat protein; designed switch direction (-1 OFF switch, 1 ON switch): 1; higher = weaker reporter binding
Summary of the method: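 The buffer was Tris-HCl pH 7.5 with KCl, MgCl2, BSA, DTT, tRNA and Tween-20. In it, SNAP-549-labelled MS2 coat protein was titrated in doubling steps from 0.7 or 1.5 nM to 3 µM over chip-bound RNA switches transcribed by stalled E. coli RNA polymerase on Illumina chips. Apparent KD is the per-design median over clusters of curve fits to normalised fluorescence.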

[1] = input ligand: microRNA oligo, concentration not stated

Sequence | apparent KD of MS2 coat protein (input ligand: FMN 200 uM) [nM] | apparent KD of MS2 coat protein [1] [nM] | apparent KD of MS2 coat protein (input ligand: none) [nM] | apparent KD of MS2 coat protein (Eterna round: R95, input ligand: FMN 200 uM) [nM] | apparent KD of MS2 coat protein (Eterna round: R95, input ligand: microRNA oligo, concentration not stated) [nM] | apparent KD of MS2 coat protein (Eterna round: R95, input ligand: none) [nM]
CUGCUCGGGUGAGGAUAUGCCGCCGUUUCGGCUGCAGAAGGUGCUACGUUACAUGAGGAUCACCCAUGUCUCUGUUGUUUCGUC [salish99_SSNG1_r04_967] (Eterna round: R96, puzzle: Same State NG 1) | 74 | 41 | 57.3 | – | – | –
GUUAUACAUGAGGAUCACCCAUGUCAAUGUAGUCGAGGAUAUGGGUAGCUAUGAGGCGUACUAGAAGGCGAGGAGU [JL-ss1-3.16 ViennaUCT mod] (Eterna round: R96, puzzle: Same State 1) | 503 | 246 | 477 | – | – | –
GGUAGGUUACUACCAAUCUACAUGAGGAUCACCCAUGUGUAGGAGGAUAUGGUACCUAUUUGGUACCAGAAGGCCUAAUUAAUU [Fiskers NG3ss - 9] (Eterna round: R96, puzzle: Same State NG 3) | 117 | 96.7 | 111 | – | – | –
GGUAGGUUACUACCAAACAUGAGGAUCACCCAUGUAAGUGGGAAGGAUAUGGUACCUAUUUGGUACCAGAAGGUCCAAUUAAUU [Fiskers NG3ss - 3] (Eterna round: R96, puzzle: Same State NG 3) | 228 | 111 | 720 | – | – | –
AGCUAGUACCGAGGAUAUACGUACAUGAGGAUCACCCAUGUAUACAUGGUUUAAUGAAACUACAUGUAGAAGGCGGUACUAGCA [Mat - Same State NG 2 - JL mod - D51] (Eterna round: R96, puzzle: Same State NG 2) | 23.2 | 157 | 348 | – | – | –
ACGUGGGUAUCACAGGAUAUACUCAUAACUACAUGAGGAUCACCCAUGUAGCGGUAUUCCGGUGCGUAGAAGGGUGAUGGACCAC [Same State 2 - Mod of Artece] (puzzle: Same State 2) | – | – | – | 13.3 | 11.6 | 19.9
AUUACUAACAUAGGAUAUCAUGCGAAAAUUGCGUGAGAAGGGUGGACGCUGUCAUUCACGGAGGACAUGAGGAUCACCCAUGUC [SameState NG1 #72] (Eterna round: R96, puzzle: Same State NG 1) | 264 | 103 | 143 | – | – | –
UUGAGAUGUACAGGAUAUGGUGAGGAUCACCCACUAGAAGGGUGCACAUGUGAAUCGGACAUGAGGAUCACCCAUGUAGGGCGU (Eterna round: R96, puzzle: Same State NG 1) | 187 | 207 | 369 | – | – | –
CCGAUGCAAAUAAAACAUGAGGAUCACCCAUGUGAGACACAUGAGGAUAUGCAGGUCAAAGACUUGCAGAAGGCAUAGCGUCGG [JL SSNG3 3.87] (Eterna round: R96, puzzle: Same State NG 3) | 24.1 | 227 | 270 | – | – | –
AUAGUUAGCAAAGGAUAUGGGAAAGGAAGUGUACCAGAAGGUUGGCUACUGGGCUUACAUGAGGAUCACCCAUGUCCCGGUAGC [PowerStrip SSNG 1.30] (Eterna round: R96, puzzle: Same State NG 1) | 14.6 | 14.2 | 15.4 | – | – | –
UUCACCUUUUUUAACAUGAGGAUCACCCAUGUAUAUUGUACGUAGGAUAUCGAUGCUUUUUUUUUCGAGAAGGACGAUGUAAGU [JR_SSND3_Sub051] (Eterna round: R96, puzzle: Same State NG 3) | 38.6 | 34.2 | 37.5 | – | – | –
GGUAGGUUACUACCAAACAUGAGGAUCACCCAUGUAAGUGGGAAGGAUAUGGUACCUUUUAGGUACCAGAAGGUCCAUAUAAUU [JL Fiskers NG3ss - 2 mod 6] (Eterna round: R96, puzzle: Same State NG 3) | 177 | 2450 | 3220 | – | – | –
